The values below come from PMC6823245, “Positive Modulation of Angiotensin II Type 1 Receptor–Mediated Signaling by LVV–Hemorphin-7” (Frontiers in Pharmacology, 2019).

The conditions of data set [1]: among hemorphin peptides; ref not attached to the sentence (next sentence: Karelin et al., 1994; Moeller et al., 1997); cited from earlier work. An excerpt:
Hemorphins are endogenous hemoglobin-derived peptides that were initially reported to have opiate-like activity. They are normally released from hemoglobin beta-chain during physiological or pathophysiological conditions. These peptides are 4 to 10 amino acids long and share a common Tyr-Pro-Trp-Thr tetrapeptide core (YPWT or hemorphin-4) ([Liebmann et al., 1989]; [Zhao et al., 1995]; [Ivanov et al., 1997]; [Nyberg et al., 1997]). A number of different hemorphin peptides have been identified including hemorphin-4, hemorphin-7, and LVV–hemorphin-4, -6, and -7 ([Brantl et al., 1986]; [Piot et al ...

The target of data set [2] is T1, AT1R (AT1R-Rluc/Venus-Gαq coupling) (Homo sapiens, UniProt P30556).
T1 sequence (P30556 1-359): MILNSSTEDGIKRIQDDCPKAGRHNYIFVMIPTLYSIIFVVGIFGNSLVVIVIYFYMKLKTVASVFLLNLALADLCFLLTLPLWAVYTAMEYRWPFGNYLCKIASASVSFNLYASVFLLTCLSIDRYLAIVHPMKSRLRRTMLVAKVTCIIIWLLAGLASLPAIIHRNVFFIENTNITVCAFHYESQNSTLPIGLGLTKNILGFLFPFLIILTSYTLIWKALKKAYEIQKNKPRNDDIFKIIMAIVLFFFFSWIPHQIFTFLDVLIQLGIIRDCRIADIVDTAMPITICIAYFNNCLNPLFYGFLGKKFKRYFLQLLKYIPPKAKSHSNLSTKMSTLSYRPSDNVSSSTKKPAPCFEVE
Description: BRET between AT1R-Rluc and Venus-Gαq (dose-response / 30 min endpoint) in HEK293 cells. Format: cell-based. Set-up: expressed in transfected cells; host or cells: HEK293, transient transfection (Lipofectamine 2000). The procedure: All assays were carried out 48 h posttransfection.
BRET technology was used for dose–response analysis as previously described ([Ayoub et al., 2015]; [Ayoub, 2016]; [Ayoub et al., 2016]). […] Following treatment, 10 µl of coelenterazine h (Promega) in PBS was added to a final concentration of 5 µM, and BRET measurements were carried out using the Tristar 2 multilabel plate reader (Berthold, Germany) allowing sequential measurements of light emission at 480 and 540 nm.
(In general: Bioluminescence resonance energy transfer reports proximity on the nanometre scale.)

Data set [3] has as its target T1, AT1R (AT1R-Rluc/Venus-Gαq coupling). Description: Real-time BRET kinetics, AT1R-Rluc and Venus-Gαq in HEK293 cells. The following applies: 10 µM alone, sequential protocol, after 35 min (Figure 3C).
Description: (§1) HEK293 cells were maintained at 37°C, 5% CO2 in complete medium (Dulbecco modified Eagle medium (DMEM) containing 0.3 mg/ml glutamine, 100 IU/ml penicillin, and 100 µg/ml streptomycin) supplemented with 10% fetal calf serum (GIBCO BRL, Carlsbad, CA, USA). Transient transfections for BRET were carried out in 96-well plates and IP1 and ERK1/2 assays in six-well plates using Lipofectamine 2000 (Invitrogen). […] The plasmid solution was then mixed with 25 µl of serum-free DMEM containing 0.5 µl of Lipofectamine 2000 and incubated for 20 min at room temperature. Cells (10^5 in 150 µl/well) resuspended in DMEM supplemented with 10% fetal calf serum (FCS) were then incubated with the final DNA-Lipofectamine 2000 mix (50 µl/well) and seeded in 96-well plates. All assays were carried out 48 h posttransfection.
For the real-time BRET kinetics, different protocols were used. Cells were first washed with 50 µl/well of PBS and resuspended in 40 µl/well of PBS containing coelenterazine h (5 µM), and BRET signals were measured in real time for ∼5 min to determine the baseline.
All kinetic and the sigmoidal dose–response curves were fitted to appropriate nonlinear regression equations using GraphPad Prism software (San Diego, CA, USA). Statistical analyses were performed with two-way ANOVA and Tukey multiple-comparisons test to determine statistical significance between the different conditions.
In data set [4] the target is T2, AT1R (AT1R-WT) (Homo sapiens, UniProt P30556).
T2 sequence (P30556 1-359): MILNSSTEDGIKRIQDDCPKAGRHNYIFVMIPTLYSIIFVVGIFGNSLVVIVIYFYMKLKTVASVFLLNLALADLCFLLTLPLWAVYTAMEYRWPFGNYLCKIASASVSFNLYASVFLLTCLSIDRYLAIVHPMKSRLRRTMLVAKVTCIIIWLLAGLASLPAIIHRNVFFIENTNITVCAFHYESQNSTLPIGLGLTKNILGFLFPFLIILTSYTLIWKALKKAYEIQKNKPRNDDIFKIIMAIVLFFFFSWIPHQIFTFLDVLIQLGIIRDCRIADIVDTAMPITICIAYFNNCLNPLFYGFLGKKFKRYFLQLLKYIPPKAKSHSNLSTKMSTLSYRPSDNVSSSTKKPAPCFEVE
As to conditions: 10 µM irbesartan 15 min, then 5 nM AngII ± 10 µM LVV–hemorphin-7, 30 min, 37°C (Figure 5D).
Description: as §1
Measurement of IP1 accumulation was performed in HEK293 cells expressing either AT1R-Rluc with Venus-Gαq like for BRET assays or untagged AT1R (AT1R-WT) alone using the IP-One Tb kit (Cisbio Bioassays, France) according to manufacturer’s instructions. […] The cells were then lysed by adding the supplied assay reagents, and the assay was incubated for 1 h at room temperature. Fluorescence emission was measured at 620 and 665 nm, 50 µs after excitation at 340 nm using the Tristar 2 multilabel plate reader (Berthold, Germany). […]

Data set [5] has as its system AT1R. As to conditions: ref Li et al., 2018, cited from earlier work. An excerpt: Our seminal finding is of significant importance to hemorphin and GPCR pharmacology and their implication in human physiology. Indeed, in addition to hemorphin’s effect on opioid receptors ([Brantl et al., 1986]; [Davis et al., 1989]; [Liebmann et al., 1989]; [Glämsta et al., 1992]; [Yukhananov et al., 1994]; [Nyberg et al., 1997]; [Szikra et al., 2001]; [Cheng et al., 2012]), we report yet another GPCR member (AT1R) that is a target of hemorphins with the plausible implication in the physiology and pathophysiology of vascular and renal systems. The action of LVV–hemorphin-7 on AT1R is consist ...

In data set [6] the target is AT1R-RlucII (angiotensin II type 1 receptor fused to Renilla luciferase) (human) (UniProt P30556).
Data set [7] has the same target. The source holds these as a separate data set.
For data set [8] the target is unchanged. This is another data set of the same source.
Data set [9] has the same target. This is another data set of the same source.
In data set [10] the target is untagged AT1R (AT1R-WT) (human) (UniProt P30556).

With `CC(C)C[C@H](N)C(=O)N[C@H](C(=O)N[C@H](C(=O)N[C@@H](Cc1ccc(O)cc1)C(=O)N1CCC[C@H]1C(=O)N[C@@H](Cc1c[nH]c2ccccc12)C(=O)N[C@H](C(=O)N[C@@H](CCC(N)=O)C(=O)N[C@@H](CCCNC(=N)N)C(=O)N[C@@H](Cc1ccccc1)C(=O)O)[C@@H](C)O)C(C)C)C(C)C` [LVV–hemorphin-7], the stability entry in data set [1] is on record as “most stable form”. In data set [2] (15 min preincubation, then 10 nM AngII 20 min (Figure 2E)), the “EC50 of potentiation of AngII-mediated BRET (in words)” value is “micromolar range”. The “BRET increase, LVV–hemorphin-7 alone” value in data set [3] is roughly 10%.
Turning to `CCCCC1=NC2(CCCC2)C(=O)N1Cc1ccc(-c2ccccc2-c2nnn[nH]2)cc1` [irbesartan], in data set [4], the “inhibition of AngII-mediated IP1 production and its potentiation by LVV–hemorphin-7” value was “completely abolished”. For the same molecule, in data set [2] (10 µM irbesartan 15 min, then 10 nM AngII ± 10 µM LVV–hemorphin-7, 30 min, 37°C (Figure 4A), n = 3), the “inhibition of AngII-mediated BRET signals and of their potentiation by LVV–hemorphin-7” value is on record as “full inhibition”.
Consider `NC(CCS)C(=O)O` (centres unmarked) [homocysteine], for which the “binding site on AT1R” value in data set [5] (binding experiments) is reported as “binding of homocysteine to the orthosteric binding site of AT1R”. Moreover, the “positive allosteric modulation of AT1R” value in [5] is reported as “PAM of AT1R”.
For LVVYPWTQRF [LVV–hemorphin-7], the BRET increase in sequential real-time kinetics (AT1R-Rluc with Venus-Gαq or yPET–β-arrestin 2), 10 µM LVV–hemorphin-7 alone, after 35 min in data set [6] was determined as 10%. Further, in [7], the Log EC50 of LVV–hemorphin-7 for potentiation of the BRET increase between AT1R-Rluc and Venus-Gαq induced by 10 nM AngII (log (concentration unit not given)) was -5.41; the Log EC50 of LVV–hemorphin-7 for potentiation of the BRET increase between AT1R-Rluc and yPET–β-arrestin 2 induced by 10 nM AngII (log (concentration unit not given)) was -5.48. Further, in data set [8], the E max (%) of AngII with LVV–hemorphin-7, BRET dose–response, AT1R-Rluc + Venus-Gαq; AngII without LVV–hemorphin-7 taken as 100% was found to be 109%; the E max (%) of AngII with LVV–hemorphin-7, BRET dose–response, AT1R-Rluc + yPET–β-arrestin 2; AngII without LVV–hemorphin-7 taken as 100% is 104%; the E max (%) of AngII with LVV–hemorphin-7, BRET kinetics 1 (Figures 3A, B), AT1R-Rluc + Venus-Gαq; 10 nM AngII alone taken as 100% worked out at 263%; the E max (%) of AngII with LVV–hemorphin-7, BRET kinetics 1 (Figures 3A, B), AT1R-Rluc + yPET–β-arrestin 2; 10 nM AngII alone taken as 100% was determined as 240%. Moreover, in data set [8], the E max (%) of AngII with LVV–hemorphin-7, BRET kinetics 2 (Figures 3C, D), AT1R-Rluc + Venus-Gαq; 10 nM AngII alone taken as 100% turned out to be 171% and the E max (%) of AngII with LVV–hemorphin-7, BRET kinetics 2 (Figures 3C, D), AT1R-Rluc + yPET–β-arrestin 2; 10 nM AngII alone taken as 100% was 200%. In data set [9], the ERK1/2 phosphorylation (folds over untreated cells), cells coexpressing AT1R-Rluc and Venus-Gαq, cotreatment with 10 nM AngII and 10 µM LVV–hemorphin-7 for 5 min came to 6.71 folds; the ERK1/2 phosphorylation (folds over untreated cells), cells coexpressing AT1R-Rluc and Venus-Gαq, pretreatment with LVV–hemorphin-7 for 15 min followed by AngII for 5 min is 6.7 folds. In [10], the ERK1/2 phosphorylation (folds over untreated cells), cells expressing AT1R-WT, 10 µM LVV–hemorphin-7 alone, 5 min turned out to be 6.74 folds; the ERK1/2 phosphorylation (folds over untreated cells), cells expressing AT1R-WT, cotreatment with AngII and LVV–hemorphin-7 is 12.8 folds.
